# T1: sF ectodomain (Nipah henipavirus), Q9IH63
# T1 chain: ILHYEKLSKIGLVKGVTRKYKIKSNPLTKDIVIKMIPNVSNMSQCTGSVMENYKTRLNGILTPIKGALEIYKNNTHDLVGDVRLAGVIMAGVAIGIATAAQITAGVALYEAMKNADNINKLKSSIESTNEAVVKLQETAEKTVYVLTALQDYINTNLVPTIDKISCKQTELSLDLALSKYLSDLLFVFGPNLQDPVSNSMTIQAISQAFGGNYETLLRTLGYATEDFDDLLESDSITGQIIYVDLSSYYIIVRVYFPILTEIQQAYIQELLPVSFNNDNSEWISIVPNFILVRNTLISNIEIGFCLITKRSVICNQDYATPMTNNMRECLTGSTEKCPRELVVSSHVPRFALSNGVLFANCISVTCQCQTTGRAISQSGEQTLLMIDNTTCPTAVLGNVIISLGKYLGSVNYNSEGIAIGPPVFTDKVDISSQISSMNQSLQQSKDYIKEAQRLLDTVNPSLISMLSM
# B1: P-59 peptide peptide P-59, Q9IH62 (peptide)
# chain: HECNISCPNPLPFREYRPQTEGV
# Key:
# [1] = biological target: T1, sF ectodomain (Nipah henipavirus), …; assay: MST; settings: modification not given
# [2] = biological target: T1, sF ectodomain (Nipah henipavirus), …; assay: BLI; settings: modification not given
binder,measurement,setting,value
B1,Kd,[1],5000 nM
same,Kd,[2],190 nM

# Source: paper PMC11109247
